Measured values as given in EP1852441B1 (The Burnham Institute, dated 2004).
Where no end group is shown, it is not given here.

Key:
[1] = target: T1, histidine-tagged mouse EphA2 Fc fusion protein (mouse, UniProt Q03145 26-535, limits assumed); test: SPR (BIAcore 3000), EphA2 Fc coupled to the chip, equilibrium binding
T1 construct: Bought; also called Eph2 Fc; not shown: Fc region; histidine tag

[2] = target: T2, EphB4 Fc; test: immobilized biotinylated peptide capturing Eph receptor Fc
T2 construct: also called EpbB4
T2 sequence (P54761 16-539): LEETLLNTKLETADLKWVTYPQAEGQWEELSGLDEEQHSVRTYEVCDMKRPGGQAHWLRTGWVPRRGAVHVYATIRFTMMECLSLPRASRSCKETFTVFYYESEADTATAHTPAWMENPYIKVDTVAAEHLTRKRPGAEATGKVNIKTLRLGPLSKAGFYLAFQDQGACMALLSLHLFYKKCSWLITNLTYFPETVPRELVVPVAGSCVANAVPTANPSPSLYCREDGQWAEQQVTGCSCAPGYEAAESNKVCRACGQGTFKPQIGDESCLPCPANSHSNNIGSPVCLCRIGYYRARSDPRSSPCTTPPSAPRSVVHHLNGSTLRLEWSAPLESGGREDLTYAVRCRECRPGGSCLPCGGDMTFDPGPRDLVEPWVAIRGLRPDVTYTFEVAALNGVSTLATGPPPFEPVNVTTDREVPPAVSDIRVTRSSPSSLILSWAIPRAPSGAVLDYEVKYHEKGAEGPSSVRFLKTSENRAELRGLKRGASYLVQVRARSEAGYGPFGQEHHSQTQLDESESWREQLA

T1 sequence (Q03145 26-535 limits assumed): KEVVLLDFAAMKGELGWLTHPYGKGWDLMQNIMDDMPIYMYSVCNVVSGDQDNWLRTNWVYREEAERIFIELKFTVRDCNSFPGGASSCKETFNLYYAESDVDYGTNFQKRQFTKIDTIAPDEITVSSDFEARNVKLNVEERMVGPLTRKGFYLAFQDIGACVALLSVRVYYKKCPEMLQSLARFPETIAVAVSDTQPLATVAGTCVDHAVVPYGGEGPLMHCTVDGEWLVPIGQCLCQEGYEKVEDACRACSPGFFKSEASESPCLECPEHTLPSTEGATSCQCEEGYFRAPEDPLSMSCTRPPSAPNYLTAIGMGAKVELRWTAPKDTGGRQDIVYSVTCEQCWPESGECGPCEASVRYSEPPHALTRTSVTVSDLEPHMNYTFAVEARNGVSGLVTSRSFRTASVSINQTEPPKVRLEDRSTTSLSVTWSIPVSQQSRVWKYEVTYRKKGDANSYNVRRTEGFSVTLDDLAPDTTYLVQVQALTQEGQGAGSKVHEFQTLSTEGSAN

B1: synthetic SWL peptide (SWLAYPGAVSYR) (peptide)
peptide: SWLAYPGAVSYRGSGSK
modifications: also: biotinylated (position not given here)
Kd [1]: 678 nM

B2: synthetic DAL peptide (DALNDWLLFRPW) (peptide)
peptide: DALNDWLLFRPWGSGSK
modifications: also: biotinylated (position not given here)
fold more EphB4 bound than other EphB family receptors [2]: 4 fold
